Data taken from PMC12072577, “Structure and Inhibition of the Human Na^+/H^+ Exchanger SLC9B2” (International Journal of Molecular Sciences, 2025).

Key:
[1] = target: T1, bison NHA2ΔN reconstituted into biotinylated proteoliposomes (bison, UniProt A0A6P3HVI0); assay: ELISA; liposome ELISA: biotinylated proteoliposomes with bison NHA2ΔN immobilised on streptavidin-coated microplates; hybridoma clones
T1 construct: Sodium/proton exchanger NHA2 (SLC9B2) of bison, N-terminally truncated (ΔN); The biotin is on a lipid of the liposome, not on the protein; also called bison NHA2∆N; source: reconstituted with egg PC and a biotinylated lipid

[2] = target: the molecule itself; assay: cryo-EM structure; human NHA2∆N-Fab complex in MSP1E2 nanodiscs with yeast PI lipids; apo and with 1 mM phloretin

T1 sequence (A0A6P3HVI0 whole entry, stated change not applied, the tested form may be a part): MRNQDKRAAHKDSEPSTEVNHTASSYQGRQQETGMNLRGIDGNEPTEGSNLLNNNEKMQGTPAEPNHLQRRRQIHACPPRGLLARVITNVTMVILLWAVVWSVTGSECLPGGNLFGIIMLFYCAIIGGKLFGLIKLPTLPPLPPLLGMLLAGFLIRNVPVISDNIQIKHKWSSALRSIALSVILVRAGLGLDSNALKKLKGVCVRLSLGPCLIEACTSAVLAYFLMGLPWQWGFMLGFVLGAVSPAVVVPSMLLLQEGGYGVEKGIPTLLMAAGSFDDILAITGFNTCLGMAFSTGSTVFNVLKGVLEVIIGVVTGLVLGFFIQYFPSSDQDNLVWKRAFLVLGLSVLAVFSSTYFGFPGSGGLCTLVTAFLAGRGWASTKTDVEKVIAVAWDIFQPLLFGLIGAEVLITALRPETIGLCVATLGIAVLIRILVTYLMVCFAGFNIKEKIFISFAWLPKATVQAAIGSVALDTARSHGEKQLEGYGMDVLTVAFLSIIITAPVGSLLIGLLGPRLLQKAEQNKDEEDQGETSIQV

| binding result [1] | Binder | stoichiometry N [2] |
| --- | --- | --- |
| binds | mouse monoclonal antibody against bison NHA2∆N (parent of the Fab) (antibody, V domains shown, Fab part as the heavy chain of m2 (in PDB 9QUB and 9QUW); as the light chain of m2 (in PDB 9QUB and 9QUW); Whole antibody of the selected hybridoma clone; also called antibody clone; source: mouse hybridoma (MRL/lpr mice immunised with bison NHA2 proteoliposomes)) VH: EVQLQESGPELVKPGASVKMSCKASGYTFTNYFIHWVKQKPGQGLEWIGYINPYNDITKFNEKFKGKATLTSDKSSRTAYMELSSLTSEDSAVYYCARCDGYYRYYAMDYWGQGTSVTVSS VL: DIVMTQTTSSLSASLGDRVTISCRASQDISNYLNWFQQKPDGTVKLLICYTSRLHSGVPSRFSGSGSGTDYSLTISNLEQEDIATYFCQQDSKHPWTFGGGTKLEIK | – |
| – | Homo sapiens NHA2∆N (residues 59–537), tags removed with TEV protease, in MSP1E2 nanodiscs (domain or fragment, human, UniProt Q86UD5 59-537, looked up, Sodium/proton exchanger NHA2 (SLC9B2), Homo sapiens, residues 59-537; construct lacks the first 58 amino acids; The methods call the tags N-terminal, but the protein is named NHA2∆N-GFP; TEV protease was added after the nanodisc reconstitution and before the final SEC; also called human NHA2∆N; hsNHA2∆N; not shown: GFP, N-terminal, cleaved; TwinStrep, N-terminal, cleaved; His8, N-terminal, cleaved) LQETPTEANHVQRLRQMLACPPHGLLDRVITNVTIIVLLWAVVWSITGSECLPGGNLFGIIILFYCAIIGGKLLGLIKLPTLPPLPSLLGMLLAGFLIRNIPVINDNVQIKHKWSSSLRSIALSIILVRAGLGLDSKALKKLKGVCVRLSMGPCIVEACTSALLAHYLLGLPWQWGFILGFVLGAVSPAVVVPSMLLLQGGGYGVEKGVPTLLMAAGSFDDILAITGFNTCLGIAFSTGSTVFNVLRGVLEVVIGVATGSVLGFFIQYFPSRDQDKLVCKRTFLVLGLSVLAVFSSVHFGFPGSGGLCTLVMAFLAGMGWTSEKAEVEKIIAVAWDIFQPLLFGLIGAEVSIASLRPETVGLCVATVGIAVLIRILTTFLMVCFAGFNLKEKIFISFAWLPKATVQAAIGSVALDTARSHGEKQLEDYGMDVLTVAFLSILITAPIGSLLIGLLGPRLLQKVEHQNKDEEVQGETSVQV | 2 |
